Patent US9878046B2, “Adverse side-effects associated with administration of an anti-hyaluronan agent and methods for ameliorating or preventing the side-effects” (Halozyme, Inc., priority 2010, dated 2018)
Several values for one entry are separate records, joined by “and”; a condition that tells them apart may be missing. Equal entries are not always repeated.

Tests used:
[1] = system: PC3 prostate carcinoma cell line; conditions: 157,500 Units/kg (about 4.5 mg/kg) IV Q3Dx5; cited from earlier work
[2] = Plasma pharmacokinetics of PEGPH20 (hyaluronidase activity) in patients
Protocol: Plasma samples were stored frozen, and concentrations of PEGPH20 were determined by measuring hyaluronidase activity using a modified turbidimetric assay as described in Example 4. The USP turbidimetirc method used for the determination of hyaluronidase activity awas based on the formation of an insoluble precipitate that occurs when HA binds with acidified serum. PEGPH20 concentrations were expressed as units of hyaluronidase activity (U/mL) as interpolated from a calibration curve. Activity was reported to the nearest 1 U/mL, and the analytical methods were applicable for measuring plasma hyaluronidase concentrations as low as 0.3125 U/mL.

[3] = Hyaluronidase activity (microturbidity assay), specific activity; assay type: biochemical
Protocol: Hyaluronidase activity of soluble rHuPH20 is measured by incubating soluble rHuPH20 with sodium hyaluronate (hyaluronic acid) for a set period of time (10 minutes) and then precipitating the undigested sodium hyaluronate with the addition of acidified serum albumin. The turbidity of the resulting sample is measured at 640 nm after a 30 minute development period.
Dilutions of the sample were prepared in Enzyme Diluent Solutions. The Enzyme Diluent Solution was prepared by dissolving 33.0±0.05 mg of hydrolyzed gelatin in 25.0 mL of the 50 mM PIPES Reaction Buffer (140 mM NaCl, 50 mM PIPES, pH 5.5) and 25.0 mL of sterile water for injection (SWFI), and diluting 0.2 mL of 25% Buminate solution into the mixture and vortexing for 30 seconds. This was performed within 2 hours of use and stored on ice until needed. The samples were diluted to an estimated 1-2 U/mL. […]
The MULTIDROP 384 was prepared to stop the reaction by priming the machine with Serum Working Solution and changing the volume setting to 240 μL. […] The plate was removed and shaken on a plate reader for 10 seconds. After a further 15 minutes, the turbidity of the samples was measured at 640 nm and the hyaluronidase activity (in U/mL) of each sample was determined by fitting to the standard curve.
Specific activity (Units/mg) was calculated by dividing the hyaluronidase activity (U/ml) by the protein concentration (mg/mL).

[4] = system: soluble plasma hyaluronan; assay: Soluble plasma hyaluronan ELISA in BxPC3 model mice; assay type: in vivo; conditions: PEGPH20 4.5 mg/kg alone or + dexamethasone (high or low dose)
Protocol: Plasma samples were additionally used to measure soluble plasma hyaluronan in the control group and each of the treatment groups (R&D Systems Catalog #DY3614; ELISA assay). In the vehicle control group, the plasma hyaluronan levels ranged from 2,000 to 4,000 ng/mL.

tissue HA (hyaluronan) = assay: Histochemical HA staining of skeletal muscle and skin biopsies; assay type: in vivo, beagle dog
Protocol: Twenty-four hours post-dose (Day 60), skeletal muscle biopsies were taken from each of the three treated dogs and also from an untreated control beagle dog. The medial semitendinosis/medial membranosus muscle(s) were targeted for biopsies. The area of the biopsy was shaved using electric clippers and scrubbed using either Chlorhexidine or Povidone-Iodine solutions. Bupivacaine or Lidocaine (2-3 mg/kg) was injected subcutaneously (SC) in the area of the biopsy for local analgesia. The muscle biopsy was collected using a 2-mm-diameter biopsy needle. A gauze sponge was applied with slight pressure to stop any bleeding. Metacam (meloxicam) 0.2 mg/kg was injected SC to control pain. Biopsy samples were placed in Eppendorf tubes or equivalent with approximately 200 μL 10% neutral-buffered formalin (NBF).
Biopsied tissue samples were stained for tissue HA using a highly specific histochemical staining method. […] The cell nuclei were counterstained with DAPI (4′,6-diamidino-2-phenylindole) reagent. Micrographs were then captured using a Zeiss Microscope (Thornwood, N.Y.) coupled with the Spot imaging program (Diagnostic Instruments, Inc).
The medial semitendinosis/medial membranosus muscle(s) were targeted for biopsies. The area of the biopsy was shaved using electric clippers and scrubbed using either Chlorhexidine or Povidone-Iodine solutions. […]

pericellular hyaluronan = assay: Hyaluronan staining of PC3 tumor sections; assay type: in vivo, human (xenograft in athymic male nude mice); conditions: Day 14, dexamethasone low or high dose, PEGPH20 4.5 mg/kg, or both
Protocol: Tumor tissues from the two satellite mice from all 6 treatment groups in Example 9A.1 above, were harvested by tissue biopsy on Day 14 and stained for the presence of hyaluronan. Tumor biopsies were fixed in 10% NBF for 48 hours, embedded in paraffin, and sectioned. Samples were probed for hyaluronan using a biotinylated HA-binding protein (HABP), then probed with FITC-labeled streptavidin for detection. The cell nuclei were counterstained with DAPI (4′,6-diamidino-2-phenylindole) reagent. Micrographs were then captured using a Zeiss Microscope (Thornwood, N.Y.) coupled with the Spot imaging program (Diagnostic Instruments, Inc).
Hyaluronan expression in the sections was evaluated by the level of green fluorescent intensity in the sections.

[5] = single 50 μg/kg dose, individual patients 1 and 2

B1: PEGPH20 (protein)
chain: LNFRAPPVIPNVPFLWAWNAPSEFCLGKFDEPLDMSLFSFIGSPRINATGQGVTIFYVDRLGYYPYIDSITGVTVNGGIPQKISLQDHLDKAKKDITFYMPVDNLGMAVIDWEEWRPTWARNWKPKDVYKNRSIELVQQQNVQLSLTEATEKAKQEFEKAGKDFLVETIKLGKLLRPNHLWGYYLFPDCYNHHYKKPGYNGSCFNVEIKRNDDLSWLWNESTALYPSIYLNTQQSPVAATLYVRNRVREAIRVSKIPDAKSPLPVFAYTRIVFTDQVLKFLSQDELVYTFGETVALGASGIVIWGTLSIMRSMKSCLLLDNYMETILNPYIINVTLAAKMCSQVLCQEQGVCIRKNWNSSDYLHLNPDNFAIQLEKGGKFTVRGKPTLEDLEQFSEKFYCSCYSTLSCKEKADVKDTDAVDVCIADGVCIDAFLKPPMETEEPQIFY
- xenograft tumor growth inhibition, previously shown [1]: 34-70%
- time course of plasma concentrations ([2]; 0.5 μg/kg to 1.5 μg/kg): concentrations fell below the limit of quantification (BQL) during the first day
- plasma concentrations after dosing ([2]; 0.5 μg/kg to 1.5 μg/kg, twelve patients): ≤ 1.5 U/mL
- CL [2, 5]: 2.44 mL/h/kg and 3.29 mL/h/kg
- V1 (mL/kg), volume of the central compartment [2, 5]: 57.96 mL/kg and 55.93 mL/kg
- t1/2α (hr), distribution half-life [2, 5]: 4.77 h and 2.47 h
- plasma enzyme at 72 hours after administration ([2]; single IV dose 50 μg/kg): < 2 U/mL
- plasma enzyme initially following administration ([2]; single IV dose 50 μg/kg): approximately 30 U/mL
- terminal half-life ([2]; single IV dose 50 μg/kg): approximately 2 days
- plasma half life ([2]; single IV dose 50 μg/kg, two patients): 28 to 48 h
- histopathologic changes of knee joint or skeletal muscle (IV twice weekly, 4 weeks): no associated histopathologic changes
- clinical signs (monkeys administered PEGPH20): hypoactivity, lethargy, disorientation, hunched posture and a decrease in limb joint angle
- final enzyme activity ([3]; PEGylated rHuPH20 material at 3.5 mg/mL): 140,000 U/mL
- specific activity ([3]; rHuPH20 preparation vs PEGylated form): about 32,000 Units/mg
- plasma hyaluronan [4]: no detectable (below limit of quantitation) hyaluronan
- hyaluronan staining of skeletal muscle (tissue HA (hyaluronan); 24 h after Day 59 dose, antibody-positive dogs): did not remove extracellular hyaluronan in skeletal muscle samples
- hyaluronan staining, post-treatment skeletal muscle and skin (tissue HA (hyaluronan); 24 h after first IV dose, PEGPH20 0.3 mg/kg alone, or 0.3 / 1.0 mg/kg + dexamethasone 4 mg BID): virtually no hyaluronan staining
- pericellular hyaluronan staining of tumor sections (pericellular hyaluronan): almost completely absent
